Test results from patent publication US20240368668A1, “SUBSTRATES AND BIOMARKERS OF ADAMTS7” (The Broad Institute, Inc., priority 2021, published 2024).
Square brackets hold non-standard residues; d marks the D form. Ends that are not written are not given here.

Target: T1, mouse ADAMTS7 (Mus musculus, UniProt Q68SA9, E373Q)
T1 construct: Full-length mouse Adamts7 1-1857 (Uniprot Q68SA9, WT or E373Q catalytic mutant); expressed in transfected cells; host or cells: Human Coronary Artery Smooth Muscle Cells (HCA-SMC, Lonza), adenovirus 50 MOI
T1 sequence (Q68SA9 221-1657 E373Q): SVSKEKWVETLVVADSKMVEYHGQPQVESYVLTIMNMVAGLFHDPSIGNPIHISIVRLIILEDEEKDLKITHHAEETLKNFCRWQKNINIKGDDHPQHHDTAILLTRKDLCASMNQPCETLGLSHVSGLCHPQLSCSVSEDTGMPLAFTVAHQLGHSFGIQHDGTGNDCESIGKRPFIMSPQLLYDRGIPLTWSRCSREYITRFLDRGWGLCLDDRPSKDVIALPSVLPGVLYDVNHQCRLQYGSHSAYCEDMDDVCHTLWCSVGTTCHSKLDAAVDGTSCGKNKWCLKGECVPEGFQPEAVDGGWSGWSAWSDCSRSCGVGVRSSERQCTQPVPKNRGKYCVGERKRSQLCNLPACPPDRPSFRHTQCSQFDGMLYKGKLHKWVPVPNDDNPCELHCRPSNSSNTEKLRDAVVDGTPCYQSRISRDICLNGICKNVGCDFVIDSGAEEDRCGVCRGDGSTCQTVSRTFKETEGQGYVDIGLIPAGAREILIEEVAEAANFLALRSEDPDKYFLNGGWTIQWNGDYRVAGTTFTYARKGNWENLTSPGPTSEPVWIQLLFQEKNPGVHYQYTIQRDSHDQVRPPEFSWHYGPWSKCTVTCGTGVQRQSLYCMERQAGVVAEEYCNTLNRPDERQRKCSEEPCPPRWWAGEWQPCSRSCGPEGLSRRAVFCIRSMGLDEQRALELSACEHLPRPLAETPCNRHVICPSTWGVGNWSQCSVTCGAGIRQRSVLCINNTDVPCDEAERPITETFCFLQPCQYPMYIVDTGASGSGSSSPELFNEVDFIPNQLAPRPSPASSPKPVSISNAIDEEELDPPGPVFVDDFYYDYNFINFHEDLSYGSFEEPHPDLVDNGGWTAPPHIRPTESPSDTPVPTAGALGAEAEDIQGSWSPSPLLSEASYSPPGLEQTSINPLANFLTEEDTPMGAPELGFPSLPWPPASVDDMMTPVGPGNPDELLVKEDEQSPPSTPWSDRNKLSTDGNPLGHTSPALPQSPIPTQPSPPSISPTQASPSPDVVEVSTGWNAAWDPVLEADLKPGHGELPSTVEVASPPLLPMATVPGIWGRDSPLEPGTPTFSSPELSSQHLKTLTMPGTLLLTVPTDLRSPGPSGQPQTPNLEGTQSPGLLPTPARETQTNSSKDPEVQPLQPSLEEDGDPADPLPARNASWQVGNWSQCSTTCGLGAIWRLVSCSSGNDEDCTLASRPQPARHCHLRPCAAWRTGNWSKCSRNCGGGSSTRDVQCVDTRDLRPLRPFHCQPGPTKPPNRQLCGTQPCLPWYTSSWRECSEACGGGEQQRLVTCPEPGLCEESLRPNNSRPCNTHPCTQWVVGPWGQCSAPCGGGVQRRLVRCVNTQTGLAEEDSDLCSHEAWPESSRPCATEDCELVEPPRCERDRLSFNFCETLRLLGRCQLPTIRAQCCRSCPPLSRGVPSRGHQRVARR
Assay: TMT10 TAILS N-terminomics, SMC1 experiment (Ad-mADAMTS7 WT vs EQ vs Luc, technical replicates, trypsin digest)
Type: cell-based
Details: TAILS neo-N-terminal peptide abundance; log fold change, Ad-mADAMTS7 EQ over Luc
How it was run: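 Full-length mouse ADAMTS7 (WT or E373Q mutant, C-terminal 3xFLAG) or luciferase was transduced via adenovirus, 50 MOI, into HCA-SMC (SMC1, SMC2) or HUVEC. SMC1: pooled media, technical triplicates 400 ug; SMC2: process triplicates 300 ug; HUVEC: process triplicates 200 ug, bFGF2 10 ng/ml.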

logFC.mEQ.over.Luc | Substance
−0.14 | HSPG2_4133 (DGFKGDLCEHEENPCQLR; listed as Homo sapiens)
0.09 | HTRA1_33 (LAAGCPDR; listed as Homo sapiens)
0.00 | IFI30_43 (YKTGNLYLR; listed as Homo sapiens)
0.28 | IGFBP3_32 (AGLGPVVR; listed as Homo sapiens)
0.29 | IGFBP7_101 (AAGGPGVSGVCVCKSR; listed as Homo sapiens)
0.94 | LGALS1_53 (HGDANTIVCNSKDGGAWGTEQR; listed as Homo sapiens)
0.57 | LGALS3BP_447 (FQAPSDYR; listed as Homo sapiens)
−0.10 | LOXL1_219 (VASAGVIYPYQPR; listed as Homo sapiens)
0.11 | LOXL2_38 ([code q]QPAPEYHQPQAPANVAKIQLR; not fully specified; listed as Homo sapiens)
−0.16 | LOX_80 (ANASAQQPR; listed as Homo sapiens)
−0.22 | LOX_123 (HWFQAGYSTSR; listed as Homo sapiens)
0.14 | LTBP1_393 (LTATNFR; listed as Homo sapiens)
−0.01 | LTBP1_494 (SVQIHQVSR; listed as Homo sapiens)
0.13 | LTBP1_540 (HQQVIPHVYPVAAKTQLGR; listed as Homo sapiens)
−0.42 | LTBP2_485 (SVQIHQVAQVR; listed as Homo sapiens)
0.03 | LTBP2_1023 (GKCTNLEGSFR; listed as Homo sapiens)

More lines, now with the values behind:

Substance | logFC.mEQ.over.Luc
IGFBP3_31 (SAGLGPVVR; listed as Homo sapiens) | −0.04
IGFBP3_200 (FSSESKR; listed as Homo sapiens) | −0.09
LASP1_123 (HEEFEKSR; listed as Homo sapiens) | −0.53
LOXL2_37 (FQQPAPEYHQPQAPANVAKIQLR; listed as Homo sapiens) | 0.09
LOXL2_318 (AYKPEQPLVR; listed as Homo sapiens) | 0.00
LOX_58 (LSLGSQYQPQR; listed as Homo sapiens) | −0.11
LOX_81 (NASAQQPR; listed as Homo sapiens) | −0.30
LOX_124 (WFQAGYSTSR; listed as Homo sapiens) | 0.08
LOX_126 (QAGYSTSR; listed as Homo sapiens) | 0.02
LTBP1_546 (HVYPVAAKTQLGR; listed as Homo sapiens) | −1.05
LTBP2_533 (SGEPPRPLPPAAPR; listed as Homo sapiens) | 0.28
LTBP2_677 (SLGPGTCTLPLAQR; listed as Homo sapiens) | 0.05
LTBP2_760 (SSGALPGPAER; listed as Homo sapiens) | 0.29
LTBP2_1371 (SGQKGHAPCSSVLGR; listed as Homo sapiens) | 0.31
LTBP2_1560 (TTYTECCCQDGEAWSQQCALCPPR; listed as Homo sapiens) | 0.23
LTBP2_1584 (SSEVYAQLCNVAR; listed as Homo sapiens) | 0.32
